Assay results published in patent publication US6703198.

Biological target: full-length murine Notch1 expressed on 32D myeloid progenitor cells (murine) (UniProt Q01705)
Test: cell-based or functional assay

Sequence of full-length murine Notch1 expressed on 32D myeloid progenitor cells (murine) (Q01705 19-2531): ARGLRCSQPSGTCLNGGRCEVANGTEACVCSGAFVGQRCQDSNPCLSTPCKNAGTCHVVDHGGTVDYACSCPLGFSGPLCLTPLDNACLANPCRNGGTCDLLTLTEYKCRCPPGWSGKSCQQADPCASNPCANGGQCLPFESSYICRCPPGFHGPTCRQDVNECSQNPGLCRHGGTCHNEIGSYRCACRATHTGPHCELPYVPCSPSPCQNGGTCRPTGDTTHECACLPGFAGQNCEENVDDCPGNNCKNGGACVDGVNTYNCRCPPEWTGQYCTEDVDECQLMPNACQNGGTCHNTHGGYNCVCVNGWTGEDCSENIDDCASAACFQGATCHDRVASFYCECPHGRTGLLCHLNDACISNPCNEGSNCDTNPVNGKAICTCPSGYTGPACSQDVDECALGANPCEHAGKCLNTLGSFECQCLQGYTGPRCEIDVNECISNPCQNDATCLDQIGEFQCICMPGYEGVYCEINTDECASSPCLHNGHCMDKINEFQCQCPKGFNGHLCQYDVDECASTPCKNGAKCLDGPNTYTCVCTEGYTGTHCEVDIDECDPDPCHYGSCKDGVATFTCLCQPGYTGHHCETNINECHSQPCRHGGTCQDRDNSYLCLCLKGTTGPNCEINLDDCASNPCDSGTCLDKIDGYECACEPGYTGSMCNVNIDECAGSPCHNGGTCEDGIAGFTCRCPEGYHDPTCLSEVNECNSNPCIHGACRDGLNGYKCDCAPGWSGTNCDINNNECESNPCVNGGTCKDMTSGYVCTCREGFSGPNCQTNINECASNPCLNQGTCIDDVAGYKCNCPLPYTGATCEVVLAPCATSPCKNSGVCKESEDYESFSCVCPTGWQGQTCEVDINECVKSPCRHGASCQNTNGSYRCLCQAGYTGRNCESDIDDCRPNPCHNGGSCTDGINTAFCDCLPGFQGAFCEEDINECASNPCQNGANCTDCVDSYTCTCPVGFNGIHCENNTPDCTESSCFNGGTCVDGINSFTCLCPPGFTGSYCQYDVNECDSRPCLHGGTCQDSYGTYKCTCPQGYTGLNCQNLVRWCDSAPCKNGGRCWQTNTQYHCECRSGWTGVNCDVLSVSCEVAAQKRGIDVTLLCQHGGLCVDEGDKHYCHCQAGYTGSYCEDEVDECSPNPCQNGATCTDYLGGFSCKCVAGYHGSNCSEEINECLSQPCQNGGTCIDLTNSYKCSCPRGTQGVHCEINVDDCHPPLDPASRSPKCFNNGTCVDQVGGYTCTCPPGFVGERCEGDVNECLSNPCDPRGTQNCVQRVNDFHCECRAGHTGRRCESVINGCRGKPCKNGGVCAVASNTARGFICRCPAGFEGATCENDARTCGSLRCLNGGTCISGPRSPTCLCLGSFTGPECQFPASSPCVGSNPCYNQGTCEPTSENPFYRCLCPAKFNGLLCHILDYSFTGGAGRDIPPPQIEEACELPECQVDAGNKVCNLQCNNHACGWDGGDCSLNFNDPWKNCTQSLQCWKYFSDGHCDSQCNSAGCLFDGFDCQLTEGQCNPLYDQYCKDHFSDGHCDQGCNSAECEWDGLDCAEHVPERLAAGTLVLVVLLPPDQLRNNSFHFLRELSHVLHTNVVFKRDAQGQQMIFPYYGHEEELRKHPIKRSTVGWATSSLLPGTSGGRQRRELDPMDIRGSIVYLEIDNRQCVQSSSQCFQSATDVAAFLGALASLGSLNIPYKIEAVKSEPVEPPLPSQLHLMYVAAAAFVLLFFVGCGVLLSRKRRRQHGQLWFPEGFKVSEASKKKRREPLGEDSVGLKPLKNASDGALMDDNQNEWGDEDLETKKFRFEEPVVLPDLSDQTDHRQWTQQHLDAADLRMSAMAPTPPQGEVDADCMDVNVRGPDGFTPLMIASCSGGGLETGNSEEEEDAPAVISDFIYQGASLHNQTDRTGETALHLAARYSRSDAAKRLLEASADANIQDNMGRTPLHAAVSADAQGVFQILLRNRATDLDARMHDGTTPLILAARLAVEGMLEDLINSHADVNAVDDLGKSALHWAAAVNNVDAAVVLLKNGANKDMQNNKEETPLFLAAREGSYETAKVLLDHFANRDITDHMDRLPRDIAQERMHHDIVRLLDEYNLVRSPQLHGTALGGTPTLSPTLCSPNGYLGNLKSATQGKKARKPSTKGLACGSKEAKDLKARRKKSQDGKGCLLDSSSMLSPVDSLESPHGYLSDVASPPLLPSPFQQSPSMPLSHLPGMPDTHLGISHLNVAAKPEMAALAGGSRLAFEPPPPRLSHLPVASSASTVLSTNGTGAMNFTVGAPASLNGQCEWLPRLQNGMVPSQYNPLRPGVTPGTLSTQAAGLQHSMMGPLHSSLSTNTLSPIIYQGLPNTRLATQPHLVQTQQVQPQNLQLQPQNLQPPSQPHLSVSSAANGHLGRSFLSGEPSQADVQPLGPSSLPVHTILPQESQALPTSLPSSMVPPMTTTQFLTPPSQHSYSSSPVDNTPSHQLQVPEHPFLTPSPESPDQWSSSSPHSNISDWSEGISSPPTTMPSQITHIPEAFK

## human JAGGED1 (hJAGGED1) expressed on HS-27a human bone marrow stromal cells (from UniProt P78504 22-1218) (ligand)
  Replating efficiency (FL Notch1 32D clones after 6 days on HS-27a with G-CSF): 190%
  percent of full-length Notch1-expressing 32D cells mature by day 6 on HS-27a in G-CSF: 20%
  percent of full-length Notch1-expressing 32D cells remaining undifferentiated by day 6 on HS-27a in G-CSF: 40%
